# Laboratory results published in paper PMC6166240 (Cell reports, 2018).
# T1: Extradenticle (Exd), residues 237-310 of isoform A (homeodomain and ten further residues) (Drosophila)
# T1 chain: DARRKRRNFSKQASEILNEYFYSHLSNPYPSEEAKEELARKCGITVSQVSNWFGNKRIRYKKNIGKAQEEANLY
# B1: Abdominal-B (AbdB), residues 146-229 of isoform A (W motif, linker and homeodomain) (domain or fragment)
# chain: not shown
# Target: T1, Extradenticle (Exd), residues 237-310 …
# Test: crystal structure
binder,measurement,value
B1,binding result,binds
